The target in series [1] is T1, 336(P4-P3′)562 factor VIIIa mutant.
T1 chain 1: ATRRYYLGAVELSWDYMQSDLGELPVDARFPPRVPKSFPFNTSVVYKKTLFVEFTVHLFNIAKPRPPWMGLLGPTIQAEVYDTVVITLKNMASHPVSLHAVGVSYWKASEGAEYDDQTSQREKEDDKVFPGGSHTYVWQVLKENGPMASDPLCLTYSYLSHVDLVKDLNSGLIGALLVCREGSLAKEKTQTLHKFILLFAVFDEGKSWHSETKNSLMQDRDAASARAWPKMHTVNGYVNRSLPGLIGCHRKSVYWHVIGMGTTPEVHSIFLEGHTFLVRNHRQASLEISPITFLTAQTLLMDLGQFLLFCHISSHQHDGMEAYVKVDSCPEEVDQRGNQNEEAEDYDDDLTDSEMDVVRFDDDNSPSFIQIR
T1 chain 2: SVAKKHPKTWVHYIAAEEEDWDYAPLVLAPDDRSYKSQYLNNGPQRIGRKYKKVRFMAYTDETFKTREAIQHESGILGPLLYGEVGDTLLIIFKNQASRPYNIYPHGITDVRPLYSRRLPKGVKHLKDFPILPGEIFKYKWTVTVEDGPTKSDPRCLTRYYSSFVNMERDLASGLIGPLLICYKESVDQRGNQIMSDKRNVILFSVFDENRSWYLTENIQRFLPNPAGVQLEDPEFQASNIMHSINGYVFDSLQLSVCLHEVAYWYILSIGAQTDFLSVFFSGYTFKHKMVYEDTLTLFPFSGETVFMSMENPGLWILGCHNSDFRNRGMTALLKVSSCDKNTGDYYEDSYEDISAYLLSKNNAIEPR
T1 chain 3: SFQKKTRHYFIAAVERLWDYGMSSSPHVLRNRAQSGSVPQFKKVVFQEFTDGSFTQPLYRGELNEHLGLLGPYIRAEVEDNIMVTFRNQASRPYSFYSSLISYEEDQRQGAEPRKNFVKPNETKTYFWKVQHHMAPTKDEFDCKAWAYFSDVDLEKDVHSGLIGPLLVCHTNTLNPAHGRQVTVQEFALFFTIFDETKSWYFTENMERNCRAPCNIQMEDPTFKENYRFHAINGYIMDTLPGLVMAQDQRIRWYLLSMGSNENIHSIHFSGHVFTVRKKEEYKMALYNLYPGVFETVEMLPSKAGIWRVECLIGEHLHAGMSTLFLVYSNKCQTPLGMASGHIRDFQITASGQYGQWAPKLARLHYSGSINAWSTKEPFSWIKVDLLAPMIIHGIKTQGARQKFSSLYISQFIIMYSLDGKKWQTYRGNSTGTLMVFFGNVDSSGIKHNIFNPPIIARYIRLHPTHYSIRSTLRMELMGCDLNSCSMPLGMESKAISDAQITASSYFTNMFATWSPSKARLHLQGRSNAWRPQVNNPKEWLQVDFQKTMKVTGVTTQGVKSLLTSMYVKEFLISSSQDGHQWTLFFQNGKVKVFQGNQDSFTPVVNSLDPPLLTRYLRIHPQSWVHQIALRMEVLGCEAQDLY

The target in series [2] is T2, 562(P4-P2)336 factor VIIIa mutant.
T2 chain 1: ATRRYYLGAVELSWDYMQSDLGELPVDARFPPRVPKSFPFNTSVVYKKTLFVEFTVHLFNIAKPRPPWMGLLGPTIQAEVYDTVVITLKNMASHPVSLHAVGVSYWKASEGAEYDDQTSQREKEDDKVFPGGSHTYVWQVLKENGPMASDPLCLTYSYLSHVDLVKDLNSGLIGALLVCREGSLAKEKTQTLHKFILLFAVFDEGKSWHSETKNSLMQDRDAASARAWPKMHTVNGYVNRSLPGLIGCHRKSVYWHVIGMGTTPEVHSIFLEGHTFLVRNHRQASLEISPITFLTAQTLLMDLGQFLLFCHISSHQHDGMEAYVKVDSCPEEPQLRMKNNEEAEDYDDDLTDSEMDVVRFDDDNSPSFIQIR
T2 chain 2: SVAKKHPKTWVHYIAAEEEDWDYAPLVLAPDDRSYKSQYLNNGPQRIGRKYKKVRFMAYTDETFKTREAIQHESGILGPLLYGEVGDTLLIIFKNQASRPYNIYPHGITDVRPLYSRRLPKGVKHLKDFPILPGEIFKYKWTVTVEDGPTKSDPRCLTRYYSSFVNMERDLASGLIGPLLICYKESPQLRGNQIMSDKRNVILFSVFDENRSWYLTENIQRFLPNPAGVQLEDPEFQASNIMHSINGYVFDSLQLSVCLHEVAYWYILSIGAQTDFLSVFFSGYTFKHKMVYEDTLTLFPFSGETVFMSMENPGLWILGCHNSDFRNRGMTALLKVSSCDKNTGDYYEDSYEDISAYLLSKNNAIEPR
T2 chain 3: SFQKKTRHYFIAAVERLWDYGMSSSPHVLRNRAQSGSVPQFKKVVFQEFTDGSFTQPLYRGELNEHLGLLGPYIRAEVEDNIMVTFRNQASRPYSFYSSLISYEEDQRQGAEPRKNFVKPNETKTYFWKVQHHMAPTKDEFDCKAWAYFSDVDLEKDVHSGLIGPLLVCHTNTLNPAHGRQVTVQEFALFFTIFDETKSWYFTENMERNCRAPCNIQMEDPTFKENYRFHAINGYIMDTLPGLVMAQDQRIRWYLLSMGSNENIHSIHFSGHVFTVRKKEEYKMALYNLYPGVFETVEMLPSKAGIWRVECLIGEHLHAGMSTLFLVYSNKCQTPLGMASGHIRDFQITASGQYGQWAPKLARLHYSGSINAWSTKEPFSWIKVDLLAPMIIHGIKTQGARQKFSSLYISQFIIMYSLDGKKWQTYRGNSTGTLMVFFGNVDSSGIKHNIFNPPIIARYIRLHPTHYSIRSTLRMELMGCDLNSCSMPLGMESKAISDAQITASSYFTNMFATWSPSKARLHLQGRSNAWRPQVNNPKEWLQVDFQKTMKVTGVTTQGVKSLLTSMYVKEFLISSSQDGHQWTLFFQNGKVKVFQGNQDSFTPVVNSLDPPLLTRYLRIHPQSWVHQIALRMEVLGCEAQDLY

For series [3], the target named is T3, 562(P4-P3′)336 factor VIIIa mutant.
T3 chain 1: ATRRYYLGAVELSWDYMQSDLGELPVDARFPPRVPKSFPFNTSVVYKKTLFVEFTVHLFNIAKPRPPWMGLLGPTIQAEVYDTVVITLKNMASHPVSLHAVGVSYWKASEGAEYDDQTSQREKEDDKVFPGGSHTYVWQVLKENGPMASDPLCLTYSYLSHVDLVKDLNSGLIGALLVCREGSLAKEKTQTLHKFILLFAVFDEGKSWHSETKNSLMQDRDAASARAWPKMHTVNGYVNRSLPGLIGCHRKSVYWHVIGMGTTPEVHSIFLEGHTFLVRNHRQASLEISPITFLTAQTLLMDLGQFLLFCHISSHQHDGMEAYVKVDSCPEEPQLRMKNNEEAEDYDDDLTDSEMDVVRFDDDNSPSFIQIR
T3 chain 2: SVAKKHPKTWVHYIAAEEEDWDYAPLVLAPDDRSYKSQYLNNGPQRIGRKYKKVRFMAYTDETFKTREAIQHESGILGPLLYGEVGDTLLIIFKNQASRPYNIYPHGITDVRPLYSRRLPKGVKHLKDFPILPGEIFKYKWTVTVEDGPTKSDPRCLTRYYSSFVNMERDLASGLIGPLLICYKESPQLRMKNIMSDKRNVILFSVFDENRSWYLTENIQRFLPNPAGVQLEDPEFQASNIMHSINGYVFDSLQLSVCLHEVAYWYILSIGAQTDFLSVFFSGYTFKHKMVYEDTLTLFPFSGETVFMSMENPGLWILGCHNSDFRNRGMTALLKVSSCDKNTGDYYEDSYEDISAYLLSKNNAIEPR
T3 chain 3: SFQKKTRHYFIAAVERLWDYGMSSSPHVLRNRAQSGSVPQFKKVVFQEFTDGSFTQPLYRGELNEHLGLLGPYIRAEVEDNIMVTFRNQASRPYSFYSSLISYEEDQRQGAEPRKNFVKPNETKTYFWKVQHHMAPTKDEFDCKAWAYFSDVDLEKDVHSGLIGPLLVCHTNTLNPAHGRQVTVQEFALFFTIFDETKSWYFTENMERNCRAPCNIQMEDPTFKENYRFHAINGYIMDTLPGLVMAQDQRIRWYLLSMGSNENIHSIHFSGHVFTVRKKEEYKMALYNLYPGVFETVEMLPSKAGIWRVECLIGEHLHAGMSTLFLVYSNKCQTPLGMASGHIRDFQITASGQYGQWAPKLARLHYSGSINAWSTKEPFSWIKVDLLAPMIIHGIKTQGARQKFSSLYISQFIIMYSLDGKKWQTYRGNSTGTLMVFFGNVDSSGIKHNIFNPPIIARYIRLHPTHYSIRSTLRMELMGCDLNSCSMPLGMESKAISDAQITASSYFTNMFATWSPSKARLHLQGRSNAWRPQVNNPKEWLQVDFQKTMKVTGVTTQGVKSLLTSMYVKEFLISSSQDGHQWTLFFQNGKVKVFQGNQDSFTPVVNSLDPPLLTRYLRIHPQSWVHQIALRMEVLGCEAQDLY

B1: human activated protein C (protein)
chain 1: ANSFLEELRHSSLERECIEEICDFEEAKEIFQNVDDTLAFWSKHVDGDQCLVLPLEHPCASLCCGHGTCIDGIGSFSCDCRSGWEGRFCQREVSFLNCSLDNGGCTHYCLEEVGWRRCSCAPGYKLGDDLLQCHPAVKFPCGRPWKRMEKKRSHL
chain 2: LIDGKMTRRGDSPWQVVLLDSKKKLACGAVLIHPSWVLTAAHCMDESKKLLVRLGEYDLRRWEKWELDLDIKEVFVHPNYSKSTTDNDIALLHLAQPATLSQTIVPICLPDSGLAERELNQAGQETLVTGWGYHSSREKEAKRNRTFVLNFIKIPVVPHNECSEVMSNMVSENMLCAGILGDRQDACEGDSGGPMVASFHGTWFLVGLVSWGEGCGLLHNYGVYTKVSRYLDWIHGHIRDKEAPQKSWAP
Take B1: in series [1], the A1 Cleavage (nM A1/min/nM APC) (nM A1/min/nM APC) worked out at 0.1, the A2 Cleavage (nM A2/min/nM APC) (nM A2/min/nM APC) came out at 0.05 and the “fold reduction of A1 subunit cleavage rate relative to WT” value is on record as “reduced by ˜100-fold relative to WT”. Also, in series [2], the A1 Cleavage (nM A1/min/nM APC) (nM A1/min/nM APC) was found to be 7.4 and the A2 Cleavage (nM A2/min/nM APC) (nM A2/min/nM APC) is 0.7. In series [3], the A1 Cleavage (nM A1/min/nM APC) (nM A1/min/nM APC) was found to be 7.3, the A2 Cleavage (nM A2/min/nM APC) (nM A2/min/nM APC) is 1.9 and the “fold increase of A2 subunit cleavage rate” value was “the rate of A2 subunit cleavage for 562(P4-P3′)336 mutant was increased 4 fold”.

(Values after US20090118185A1 (UNIVERSITY OF ROCHESTER, published 2009).)
